Measured values published in PMC10520331, “Novel exported fusion enzymes with chorismate mutase and cyclohexadienyl dehydratase activity: Shikimate pathway enzymes teamed up in no man's land” (The Journal of Biological Chemistry, 2023).

Tests used:
[1] = system: O=C(O)C(=O)CC1(C(=O)O)C=CC(O)C=C1; assay: purified protein; settings: PBS pH 7.5, 30 °C, CDT site
[2] = system: C=C(O[C@@H]1C=C(C(=O)O)C=C[C@H]1O)C(=O)O; assay: purified protein; settings: PBS pH 7.5, 30 °C, CM site, lowest substrate 2.5 μM (Km near or below this is less reliable)
[3] = system: T1, C=C(O[C@@H]1C=C(C(=O)O)C=C[C@H]1O)C(=O)O; assay: discontinuous CM assay, phenylpyruvate enolate A320; format: biochemical, Steroidobacter cummioxidans; settings: PBS pH 7.5, 30 °C, CM site
T1 construct: fusion enzyme, CM N-terminal to CDT; without signal peptide, C-terminal His-tag; E. coli KA29; monomer
Source text: discontinuous CM assay, phenylpyruvate enolate A320 on ∗ScCMCDT

[4] = system: T2, O=C(O)C(=O)CC1(C(=O)O)C=CC(O)C=C1; assay: discontinuous CDT assay, phenylpyruvate enolate A320; format: biochemical, Steroidobacter cummioxidans; settings: PBS pH 7.5, 30 °C, CDT site
T2 construct: fusion enzyme, CM N-terminal to CDT; without signal peptide, C-terminal His-tag; E. coli KA29; monomer
Source text: discontinuous CDT assay, phenylpyruvate enolate A320 on ∗ScCMCDT

[5] = substrate: C=C(O[C@@H]1C=C(C(=O)O)C=C[C@H]1O)C(=O)O; assay: discontinuous CM assay, phenylpyruvate enolate A320; format: biochemical, Janthinobacterium sp. HH01; settings: PBS pH 7.5, 30 °C, CM site, lowest substrate 2.5 μM (Km near or below this is less reliable)
Source text: discontinuous CM assay, phenylpyruvate enolate A320 on ∗JbCDTCM

[6] = substrate: O=C(O)C(=O)CC1(C(=O)O)C=CC(O)C=C1; assay: discontinuous CDT assay, phenylpyruvate enolate A320; format: biochemical, Janthinobacterium sp. HH01; settings: PBS pH 7.5, 30 °C, CDT site
Source text: discontinuous CDT assay, phenylpyruvate enolate A320 on ∗JbCDTCM

[7] = substrate: O=C(O)C(=O)CC1(C(=O)O)C=CC(O)C=C1; assay: as above; format: biochemical, Shewanella baltica; settings: PBS pH 7.5, 30 °C, CDT site, lowest substrate 2.5 μM (Km near or below this is less reliable)
Source text: discontinuous CDT assay, phenylpyruvate enolate A320 on ∗SbCMCDT

[8] = substrate: C=C(O[C@@H]1C=C(C(=O)O)C=C[C@H]1O)C(=O)O; assay: discontinuous CM assay, phenylpyruvate enolate A320; format: biochemical, Shewanella baltica; settings: PBS pH 7.5, 30 °C, CM site, lowest substrate 2.5 μM (Km near or below this is less reliable)
Source text: discontinuous CM assay, phenylpyruvate enolate A320 on ∗SbCMCDT

[9] = substrate: C=C(O[C@@H]1C=C(C(=O)O)C=C[C@H]1O)C(=O)O; assay: as above; format: biochemical, Janthinobacterium sp. HH01; settings: PBS pH 7.5, 30 °C, lowest substrate 2.5 μM (Km near or below this is less reliable)
Source text: discontinuous CM assay, phenylpyruvate enolate […] on ∗JbCM

[10] = CM-site knock-out, lowest substrate 2.5 μM (Km near or below this is less reliable)

## ∗MpCDTCM (Massilia phosphatilytica)
[1]
  Km: 18.1 ± 1.7 µM
  kcat: 41.8 ± 3.5 s⁻¹
  kcat/Km: 2.3e+06 M⁻¹ s⁻¹
[2]
  Km: 3.2 ± 0.0 µM
  kcat: 26.3 ± 1.4 s⁻¹
  kcat/Km: 8.3e+06 ± 400000 M⁻¹ s⁻¹

## ∗ScCMCDT (Steroidobacter cummioxidans)
[3]
  Km: 6.3 ± 3.9 µM
  kcat: 6.8 ± 0.7 s⁻¹
[4]
  Km: 16.6 ± 2.5 µM
  kcat: 32.0 ± 8.4 s⁻¹
  kcat/Km: 1.9e+06 ± 200000 M⁻¹ s⁻¹

## ∗DsCDTCM (Duganella sacchari)
[1]
  Km: 14.6 ± 3.1 µM
  kcat: 24.9 ± 2.0 s⁻¹
  kcat/Km: 1.8e+06 ± 500000 M⁻¹ s⁻¹
[2]
  Km: 3.0 ± 0.8 µM
  kcat: 19.5 ± 0.2 s⁻¹
  kcat/Km: 6.8e+06 ± 1.9e+06 M⁻¹ s⁻¹

B1: ∗JbCDTCM (Janthinobacterium sp. HH01) (protein)
chain: DHRLDDITARGVLRVGTTGDYKPFSSRAGNDFVGLDIELAADLARTLGVPVQIVPTSWPTLMKDFGDGKFDIALGGVSITPERQKQGLFSVSYLRDGKTPITRCENSARFQTLAQIDQPGVRLVVNPGGTNERFARSQAPNAQLTVYPDNVTIFDQIVTGAADLMITDAIETRLQQRLRPQLCAVHPDTPFDFAEKAILLPRDVAFKAVVDKWLQQRIASGAVQRSVDRWLDFPWGLEPLRLAIDQRLLLAQAVARAKWNVQAPIEDLGREAQVIQAAVKEGAALGLPKVWIETVFRAQIEASKTVQRELFAQWSAQQAGKFDDAPDLAKTIRPELDRLTTQLLRSMASNQTVLNDEARKADVARAMRALEARALSPQAATQALAPFF
notes: fusion enzyme, CDT N-terminal to CM; without signal peptide, C-terminal His-tag; E. coli KA29; monomer
[5]
  Km: 3.0 ± 0.1 µM
  kcat: 17.1 ± 0.9 s⁻¹
  kcat/Km: 5.7e+06 ± 100000 M⁻¹ s⁻¹
[6]
  Km: 7.3 ± 2.0 µM
  kcat: 13.0 ± 1.3 s⁻¹
  kcat/Km: 1.8e+06 ± 300000 M⁻¹ s⁻¹

B2: ∗JbCDTCM (Janthinobacterium sp. HH01; E200Q) (protein)
chain: DHRLDDITARGVLRVGTTGDYKPFSSRAGNDFVGLDIELAADLARTLGVPVQIVPTSWPTLMKDFGDGKFDIALGGVSITPERQKQGLFSVSYLRDGKTPITRCENSARFQTLAQIDQPGVRLVVNPGGTNERFARSQAPNAQLTVYPDNVTIFDQIVTGAADLMITDAIQTRLQQRLRPQLCAVHPDTPFDFAEKAILLPRDVAFKAVVDKWLQQRIASGAVQRSVDRWLDFPWGLEPLRLAIDQRLLLAQAVARAKWNVQAPIEDLGREAQVIQAAVKEGAALGLPKVWIETVFRAQIEASKTVQRELFAQWSAQQAGKFDDAPDLAKTIRPELDRLTTQLLRSMASNQTVLNDEARKADVARAMRALEARALSPQAATQALAPFF
notes: as for B1
[5]; CDT-site knock-out
  Km: 2.4 ± 1.3 µM
  kcat: 15.6 ± 0.4 s⁻¹
  kcat/Km: 7.9e+06 ± 4.5e+06 M⁻¹ s⁻¹

B3: ∗JbCDTCM (Janthinobacterium sp. HH01; K287A) (protein)
chain: DHRLDDITARGVLRVGTTGDYKPFSSRAGNDFVGLDIELAADLARTLGVPVQIVPTSWPTLMKDFGDGKFDIALGGVSITPERQKQGLFSVSYLRDGKTPITRCENSARFQTLAQIDQPGVRLVVNPGGTNERFARSQAPNAQLTVYPDNVTIFDQIVTGAADLMITDAIETRLQQRLRPQLCAVHPDTPFDFAEKAILLPRDVAFKAVVDKWLQQRIASGAVQRSVDRWLDFPWGLEPLRLAIDQRLLLAQAVARAAWNVQAPIEDLGREAQVIQAAVKEGAALGLPKVWIETVFRAQIEASKTVQRELFAQWSAQQAGKFDDAPDLAKTIRPELDRLTTQLLRSMASNQTVLNDEARKADVARAMRALEARALSPQAATQALAPFF
notes: as for B1
[6]; [10]
  Km: 4.2 ± 0.4 µM
  kcat: 13.9 ± 0.3 s⁻¹
  kcat/Km: 3.3e+06 ± 200000 M⁻¹ s⁻¹

B4: ∗SbCMCDT (Shewanella baltica OS155) (protein)
chain: DTDENAELYANMNTRLSYMQQVALYKWQHQLPIEDLAREKIVLAQSVTAAESLGITSVAITDFFQVQIELAKKIQRQYHQQWREHGLPQTLQTKQNTKLSLDKIRPALTTLGQTIIEQIAEHQDQHDFSVFNLAIDTPLVSIEDKAVLFRSLSLIKPKVYLSTLDKIIAEKILYVGTTGDYEPFSYFEAGQIKGIDIDLANRLADSLGAQAVFLPTSWSNLITDLSSERFDIMMSGISKQLFRQRVGLQSDIYLEDGKTPISLCAKKERYDSLAKIDKPDTRMIVNKGGTNQRFVDANIKQAKITVHSSNVTIFQELIANRADVMITDRVEVQLQTKKHTELCSTMPNNLNYSAKAFLMGRDPIWKEYVDAWLELSIKDGSVSNIFNHYI
notes: fusion enzyme, CM N-terminal to CDT; without signal peptide, C-terminal His-tag; E. coli KA29
[7]
  Km: 3.6 ± 1.1 µM
  kcat: 12.2 ± 2.8 s⁻¹
  kcat/Km: 3.5e+06 ± 300000 M⁻¹ s⁻¹
[8]
  Km: 3.2 ± 2.7 µM
  kcat: 6.8 ± 0.1 s⁻¹

B5: ∗JbCM (Janthinobacterium sp. HH01) (protein)
chain: GLEPLRLAIDQRLLLAQAVARAKWNVQAPIEDLGREAQVIQAAVKEGAALGLPKVWIETVFRAQIEASKTVQRELFAQWSAQQAGKFDDAPDLAKTIRPELDRLTTQLLRSMASNQTVLNDEARKADVARAMRALEARALSPQAATQALAPFF
notes: split-off CM domain of JbCDTCM, starts at Gly238; C-terminal His-tag; E. coli KA29
[9]
  Km: 2.2 ± 0.3 µM
  kcat: 16.4 ± 1.5 s⁻¹
  kcat/Km: 7.6e+06 ± 1.7e+06 M⁻¹ s⁻¹
